According to paper PMC3432979:
Like-named read-outs stand apart in the source and are kept apart here.

Columns and labels:
[1] = biological target: HLA-DR1 (DRα1*0101/DRβ1*0101) refolded in the absence of peptide; assay: IC50 APL stability assay (peptide binding to DR1); details: read off a plot
[2] = biological target: HLA-DR4 (DRα1*0101/DRβ1*0401) with the influenza hemagglutinin peptide HA306-318 (human | influenza virus); assay: SPR
[3] = biological target: HLA-DR4 (DRα1*0101/DRβ1*0401) with the influenza hemagglutinin peptide HA306-318 (human | influenza virus); assay: SPR; remark: listed apart in the source
[4] = biological target: HLA-DR1 (DRα1*0101/DRβ1*0101) with the influenza hemagglutinin peptide HA306-318 (human | influenza virus); assay: SPR
[5] = biological target: HLA-DR4 (DRα1*0101/DRβ1*0401) with the influenza hemagglutinin peptide HA306-318 (human | influenza virus); assay: SPR; remark: listed apart in the source
[6] = biological target: HLA-DR1 (DRα1*0101/DRβ1*0101) with the influenza hemagglutinin peptide HA306-318 (human | influenza virus); assay: SPR; remark: listed apart in the source
[7] = biological target: HLA-DR4 (DRα1*0101/DRβ1*0401) with the influenza hemagglutinin peptide HA306-318 (human | influenza virus); assay: SPR; remark: listed apart in the source
[8] = biological target: HLA-DR1 (DRα1*0101/DRβ1*0101) with the influenza hemagglutinin peptide HA306-318 (human | influenza virus); assay: SPR; remark: listed apart in the source
[9] = biological target: HLA-DR1 (DRα1*0101/DRβ1*0101) with the influenza hemagglutinin peptide HA306-318 (human | influenza virus); assay: SPR; remark: listed apart in the source
[10] = biological target: HLA-DR1 (DRα1*0101/DRβ1*0101) with the influenza hemagglutinin peptide HA306-318 (human | influenza virus); assay: SPR; remark: listed apart in the source
[11] = biological target: HLA-DR4 (DRα1*0101/DRβ1*0401) with the influenza hemagglutinin peptide HA306-318 (human | influenza virus); assay: SPR; remark: listed apart in the source

HA306-318 peptide (wild-type HA) V309E
IC50 ([1]; parent: est. 12): 30 nM

HA306-318 peptide (wild-type HA) Y308A
IC50 ([1]; parent: est. 13): 22000 nM

HA306-318 peptide (wild-type HA) N312F
IC50 ([1]; parent: est. 12): 6 nM

HA306-318 peptide (wild-type HA) N312K
IC50 ([1]; parent: est. 12): 18 nM

HA1.7 TCR (soluble, extracellular variable and constant domains with an engineered disulphide link)
Kd [2]: 55 µM
Kd [3]: 291 µM
Kd [4]: 28 µM
Kd [5]: 48 µM
Kd [6]: 62 µM
Kd [7]: 89 µM
Kd [8]: 204 µM
Kd [9]: 36 µM
Kd [10]: 531 µM
dH [10]: 18 kcal/mol
Kd [11]: 1.27 mM
dH [11]: 16 kcal/mol

HA306-318 peptide (wild-type HA) N312Q
IC50 ([1]; parent: est. 12): 11 nM

HA306-318 peptide (wild-type HA) K315H
IC50 ([1]; parent: est. 12): 13 nM

HA306-318 peptide (wild-type HA) K310F
IC50 ([1]; parent: est. 12): 8 nM

HA306-318 peptide (wild-type HA) V309R
IC50 ([1]; parent: est. 12): 21 nM

HA306-318 peptide (wild-type HA) K310V
IC50 ([1]; parent: est. 12): 10 nM

HA306-318 peptide (wild-type HA) N312S
IC50 ([1]; parent: est. 12): 12 nM

HA306-318 peptide (wild-type HA) K307S
IC50 ([1]; parent: est. 12): 22 nM

HA306-318 peptide (wild-type HA) N312T
IC50 ([1]; parent: est. 12): 15 nM
